Consider eleven variants from IntAct's records for PubMed 31515488.

The labels stand for the following.
B1: Maspardin (Homo sapiens), Q9NZD8 (parent)
chain: MGEIKVSPDYNWFRGTVPLKKIIVDDDDSKIWSLYDAGPRSIRCPLIFLPPVSGTADVFFRQILALTGWGYRVIALQYPVYWDHLEFCDGFRKLLDHLQLDKVHLFGASLGGFLAQKFAEYTHKSPRVHSLILCNSFSDTSIFNQTWTANSFWLMPAFMLKKIVLGNFSSGPVDPMMADAIDFMVDRLESLGQSELASRLTLNCQNSYVEPHKIRDIPVTIMDVFDQSALSTEAKEEMYKLYPNARRAHLKTGGNFPYLCRSAEVNLYVQIHLLQFHGTKYAAIDPSMVSAEELEVQKGSLGISQEEQ
partner: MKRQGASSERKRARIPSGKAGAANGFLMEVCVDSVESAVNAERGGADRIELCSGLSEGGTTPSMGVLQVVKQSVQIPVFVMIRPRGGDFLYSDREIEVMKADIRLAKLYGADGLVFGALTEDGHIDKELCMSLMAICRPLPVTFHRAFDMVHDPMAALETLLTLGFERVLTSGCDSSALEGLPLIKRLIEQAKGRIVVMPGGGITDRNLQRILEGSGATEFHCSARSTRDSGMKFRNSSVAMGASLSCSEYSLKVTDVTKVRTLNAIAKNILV
B2: Cyclin-D1-binding protein 1 (Homo sapiens), O95273 (parent)
chain: MASATAPAAAVPTLASPLEQLRHLAEELRLLLPRVRVGEAQETTEEFNREMFWRRLNEAAVTVSREATTLTIVFSQLPLPSPQETQKFCEQVHAAIKAFIAVYYLLPKDQGITLRKLVRGATLDIVDGMAQLMEVLSVTPTQSPENNDLISYNSVWVACQQMPQIPRDNKAAALLMLTKNVDFVKDAHEEMEQAVEECDPYSGLLNDTEENNSDNHNHEDDVLGFPSNQDLYWSEDDQELIIPCLALVRASKACLKKIRMLVAENGKKDQVAQLDDIVDISDEISPSVDDLALSIYPPMCHLTVRINSAKLVSVLKKALEITKASHVTPQPEDSWIPLLINAIDHCMNRIKELTQSELEL
partner: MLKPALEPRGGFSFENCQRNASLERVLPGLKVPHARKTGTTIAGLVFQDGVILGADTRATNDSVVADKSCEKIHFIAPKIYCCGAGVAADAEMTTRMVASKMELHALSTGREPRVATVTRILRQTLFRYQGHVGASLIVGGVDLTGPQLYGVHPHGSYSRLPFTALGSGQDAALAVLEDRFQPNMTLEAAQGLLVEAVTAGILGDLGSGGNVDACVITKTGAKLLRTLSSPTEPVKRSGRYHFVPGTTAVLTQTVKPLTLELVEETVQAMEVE
B3: Plakophilin-2 (Homo sapiens), Q99959 (parent)
chain: MAAPGAPAEYGYIRTVLGQQILGQLDSSSLALPSEAKLKLAGSSGRGGQTVKSLRIQEQVQQTLARKGRSSVGNGNLHRTSSVPEYVYNLHLVENDFVGGRSPVPKTYDMLKAGTTATYEGRWGRGTAQYSSQKSVEERSLRHPLRRLEISPDSSPERAHYTHSDYQYSQRSQAGHTLHHQESRRAALLVPPRYARSEIVGVSRAGTTSRQRHFDTYHRQYQHGSVSDTVFDSIPANPALLTYPRPGTSRSMGNLLEKENYLTAGLTVGQVRPLVPLQPVTQNRASRSSWHQSSFHSTRTLREAGPSVAVDSSGRRAHLTVGQAAAGGSGNLLTERSTFTDSQLGNADMEMTLERAVSMLEADHMLPSRISAAATFIQHECFQKSEARKRVNQLRGILKLLQLLKVQNEDVQRAVCGALRNLVFEDNDNKLEVAELNGVPRLLQVLKQTRDLETKKQITDHTVNLRSRNGWPGAVAHACNPSTLGGQGGRITRSGVRDQPDQHGLLWNLSSNDKLKNLMITEALLTLTENIIIPFSGWPEGDYPKANGLLDFDIFYNVTGCLRNMSSAGADGRKAMRRCDGLIDSLVHYVRGTIADYQPDDKATENCVCILHNLSYQLEAELPEKYSQNIYIQNRNIQTDNNKSIGCFGSRSRKVKEQYQDVPMPEEKSNPKGVEWLWHSIVIRMYLSLIAKSVRNYTQEASLGALQNLTAGSGPMPTSVAQTVVQKESGLQHTRKMLHVGDPSVKKTAISLLRNLSRNLSLQNEIAKETLPDLVSIIPDTVPSTDLLIETTASACYTLNNIIQNSYQNARDLLNTGGIQKIMAISAGDAYASNKASKAASVLLYSLWAHTELHHAYKKAQFKKTDFVNSRTAKAYHSLKD
B4: ATP-binding cassette sub-family F member 3 (Homo sapiens), Q9NUQ8 (parent)
chain: MATCAEILRSEFPEIDGQVFDYVTGVLHSGSADFESVDDLVEAVGELLQEVSGDSKDDAGIRAVCQRMYNTLRLAEPQSQGNSQVLLDAPIQLSKITENYDCGTKLPGLLKREQSSTVNAKKLEKAEARLKAKQEKRSEKDTLKTSNPLVLEEASASQAGSRKESRLESSGKNKSYDVRIENFDVSFGDRVLLAGADVNLAWGRRYGLVGRNGLGKTTLLKMLATRSLRVPAHISLLHVEQEVAGDDTPALQSVLESDSVREDLLRRERELTAQIAAGRAEGSEAAELAEIYAKLEEIEADKAPARASVILAGLGFTPKMQQQPTREFSGGWRMRLALARALFARPDLLLLDEPTNMLDVRAILWLENYLQTWPSTILVVSHDRNFLNAIATDIIHLHSQRLDGYRGDFETFIKSKQERLLNQQREYEAQQQYRQHIQVFIDRFRYNANRASQVQSKLKMLEKLPELKPVDKESEVVMKFPDGFEKFSPPILQLDEVDFYYDPKHVIFSRLSVSADLESRICVVGENGAGKSTMLKLLLGDLAPVRGIRHAHRNLKIGYFSQHHVEQLDLNVSAVELLARKFPGRPEEEYRHQLGRYGISGELAMRPLASLSGGQKSRVAFAQMTMPCPNFYILDEPTNHLDMETIEALGRALNNFRGGVILVSHDERFIRLVCRELWVCEGGGVTRVEGGFDQYRALLQEQFRREGFL
partner: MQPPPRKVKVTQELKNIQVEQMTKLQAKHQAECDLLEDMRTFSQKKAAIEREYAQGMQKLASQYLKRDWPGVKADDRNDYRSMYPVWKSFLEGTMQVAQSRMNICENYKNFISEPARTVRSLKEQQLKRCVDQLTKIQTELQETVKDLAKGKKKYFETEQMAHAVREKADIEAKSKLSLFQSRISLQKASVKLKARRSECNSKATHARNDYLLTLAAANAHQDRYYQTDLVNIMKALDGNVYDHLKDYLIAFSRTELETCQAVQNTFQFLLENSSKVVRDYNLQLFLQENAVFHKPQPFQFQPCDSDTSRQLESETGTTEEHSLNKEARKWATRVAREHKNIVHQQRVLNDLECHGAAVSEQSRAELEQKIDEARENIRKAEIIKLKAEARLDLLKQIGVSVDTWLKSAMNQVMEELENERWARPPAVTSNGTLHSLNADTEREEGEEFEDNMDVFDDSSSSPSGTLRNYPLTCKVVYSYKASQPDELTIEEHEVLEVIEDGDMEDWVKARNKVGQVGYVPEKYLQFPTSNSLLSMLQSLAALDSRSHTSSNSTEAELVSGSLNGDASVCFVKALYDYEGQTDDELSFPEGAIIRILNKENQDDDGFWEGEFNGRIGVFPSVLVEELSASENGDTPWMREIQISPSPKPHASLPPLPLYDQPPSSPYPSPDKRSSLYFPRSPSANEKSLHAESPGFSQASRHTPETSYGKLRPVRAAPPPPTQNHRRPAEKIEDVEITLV
B5: SH2 domain-containing protein 4A (Homo sapiens), Q9H788 (parent)
chain: MLKQILSEMYIDPDLLAELSEEQKQILFFKMREEQIRRWKEREAAMERKESLPVKPRPKKENGKSVHWKLGADKEVWVWVMGEHHLDKPYDVLCNEIIAERARLKAEQEAEEPRKTHSEEFTNSLKTKSQYHDLQAPDNQQTKDIWKKVAEKEELEQGSRPAPTLEEEKIRSLSSSSRNIQQMLADSINRMKAYAFHQKKESMKKKQDEEINQIEEERTKQICKSWKEDSEWQASLRKSKAADEKRRSLAKQAREDYKRLSLGAQKGRGGERLQSPLRVPQKPERPPLPPKPQFLNSGAYPQKPLRNQGVVRTLSSSAQEDIIRWFKEEQLPLRAGYQKTSDTIAPWFHGILTLKKANELLLSTGMPGSFLIRVSERIKGYALSYLSEDGCKHFLIDASADAYSFLGVDQLQHATLADLVEYHKEEPITSLGKELLLYPCGQQDQLPDYLELFE
partner: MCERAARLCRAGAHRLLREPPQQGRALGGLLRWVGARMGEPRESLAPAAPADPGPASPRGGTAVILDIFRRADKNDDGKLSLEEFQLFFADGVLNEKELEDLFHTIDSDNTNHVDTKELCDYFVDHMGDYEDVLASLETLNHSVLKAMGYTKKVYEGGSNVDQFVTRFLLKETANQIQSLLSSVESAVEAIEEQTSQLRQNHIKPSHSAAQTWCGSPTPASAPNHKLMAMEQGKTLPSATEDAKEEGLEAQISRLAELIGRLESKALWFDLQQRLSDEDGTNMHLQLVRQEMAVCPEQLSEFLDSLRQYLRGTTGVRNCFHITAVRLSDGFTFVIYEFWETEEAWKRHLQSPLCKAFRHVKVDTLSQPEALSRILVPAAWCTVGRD

The first experiment covers variants of B1. Conditions: with cutc_human CUTC.
As for H272D, the “effect of a mutation on the interaction” value is reported as “disrupting interaction strength”.
On the same count and under the same terms, the same measure for A180T: “with no effect”.

In the next experiment the parent is B2. To be noted: with psb10_human PSMB10, P40306.
For I277T, the “effect of a mutation on the interaction” value is reported as “disrupting interaction strength”.

Variants of B3 are the subject of the next experiment. Conditions: with mtus2_human MTUS2, Q5JR59.
Chain of mtus2_human MTUS2, Q5JR59 (Q5JR59 whole entry): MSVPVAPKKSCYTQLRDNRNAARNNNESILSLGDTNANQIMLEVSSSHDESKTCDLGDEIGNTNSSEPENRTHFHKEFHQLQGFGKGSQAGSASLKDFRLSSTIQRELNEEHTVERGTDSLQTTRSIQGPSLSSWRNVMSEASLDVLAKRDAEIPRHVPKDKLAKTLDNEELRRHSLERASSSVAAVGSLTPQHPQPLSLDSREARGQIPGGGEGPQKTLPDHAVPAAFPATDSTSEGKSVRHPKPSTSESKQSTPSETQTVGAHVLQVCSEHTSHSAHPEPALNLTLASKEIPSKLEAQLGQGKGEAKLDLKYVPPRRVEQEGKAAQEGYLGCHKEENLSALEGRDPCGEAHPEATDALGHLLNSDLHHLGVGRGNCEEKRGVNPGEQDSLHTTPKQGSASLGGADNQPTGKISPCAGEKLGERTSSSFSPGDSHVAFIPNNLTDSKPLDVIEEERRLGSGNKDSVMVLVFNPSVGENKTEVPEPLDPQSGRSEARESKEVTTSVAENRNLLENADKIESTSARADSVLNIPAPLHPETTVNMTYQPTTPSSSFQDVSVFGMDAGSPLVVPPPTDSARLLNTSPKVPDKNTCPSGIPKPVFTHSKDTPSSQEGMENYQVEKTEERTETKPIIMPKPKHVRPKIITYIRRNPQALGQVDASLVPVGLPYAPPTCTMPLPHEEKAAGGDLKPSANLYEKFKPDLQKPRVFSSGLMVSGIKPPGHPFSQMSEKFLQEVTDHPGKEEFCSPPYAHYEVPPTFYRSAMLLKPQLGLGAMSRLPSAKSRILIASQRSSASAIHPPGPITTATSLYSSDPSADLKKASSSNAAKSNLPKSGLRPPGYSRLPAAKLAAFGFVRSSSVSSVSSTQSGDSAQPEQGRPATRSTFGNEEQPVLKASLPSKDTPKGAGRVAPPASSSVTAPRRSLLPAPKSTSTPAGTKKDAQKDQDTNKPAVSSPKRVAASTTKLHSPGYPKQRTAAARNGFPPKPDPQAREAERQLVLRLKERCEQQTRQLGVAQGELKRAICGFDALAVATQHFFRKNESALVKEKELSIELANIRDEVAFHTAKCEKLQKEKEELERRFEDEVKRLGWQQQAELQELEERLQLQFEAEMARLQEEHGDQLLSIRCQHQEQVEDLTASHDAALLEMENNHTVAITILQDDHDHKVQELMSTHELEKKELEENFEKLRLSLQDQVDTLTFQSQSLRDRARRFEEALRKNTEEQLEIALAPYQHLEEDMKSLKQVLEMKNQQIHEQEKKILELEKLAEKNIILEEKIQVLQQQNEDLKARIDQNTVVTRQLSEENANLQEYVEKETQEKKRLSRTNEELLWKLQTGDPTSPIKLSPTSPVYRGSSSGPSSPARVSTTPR
As to E58D, the “effect of a mutation on the interaction” value is on record as “with no effect”.
For the variant A264V, the “effect of a mutation on the interaction” value was “with no effect”.
On the same count and under the same terms, the same measure for L366P: “with no effect”.

In another experiment the parent is B4. To be noted: with fcsd2_human FCHSD2, O94868.
Consider R340W, for which the “effect of a mutation on the interaction” value is “with no effect”.
As for R510H, the “effect of a mutation on the interaction” value is “with no effect”.

Variants of B5 are the subject of the next experiment. To be noted: with neca2_human NECAB2, Q7Z6G3.
As for G263A, the “effect of a mutation on the interaction” value is reported as “with no effect”.
The same measure, in the same setting: the same measure for K303R: “with no effect”; for E216G: “with no effect”.
